# In FireProtDB (doi:10.1006/jmbi.2001.5050):
# B1: Cold shock protein CspB, P41016 (parent)
# chain: MQRGKVKWFNNEKGYGFIEVEGGSDVFVHFTAIQGEGFKTLEEGQEVSFEIVQGNRGPQAANVVKL
# Variants of: B1
# Conditions: Bacillus caldolyticus, pH 7, CD, sodium cacodylate-HCl 100 mM, reversible: yes, structure 1C9O, whole UniProt chain shown
Variant,"ddG of mutation (higher = less stable) (25 °C, GdnHCl) [kcal/mol]","denaturant m value (25 °C, GdnHCl) [kcal/mol/M]","denaturant midpoint (higher = more stable) (25 °C, GdnHCl) [M]","unfolding free energy (25 °C, GdnHCl) [kcal/mol]","ddG of mutation (higher = less stable) (70 °C, Thermal, NaCl 2 M) [kcal/mol]","unfolding free energy (70 °C, Thermal, NaCl 2 M) [kcal/mol]","ddG of mutation (higher = less stable) (70 °C, Thermal) [kcal/mol]","unfolding free energy (70 °C, Thermal) [kcal/mol]",Tm (Thermal) [°C],"change of melting temperature, mutant - wild type (higher = more stable) (Thermal) [°C]",unfolding enthalpy (van 't Hoff) (Thermal) [kcal/mol]
Q2L,-0.41,1.7,2.95,1.6,-0.29,2.49,-0.55,1.63,80.9,4,57.8
R3E,0.84,1.6,2.23,0.36,1,1.2,,,,,
R3E E46A,0.43,1.63,2.47,0.76,0.96,1.24,,,64.6,-12.3,52.8
N11S,0,1.74,2.69,1.2,-0.22,2.41,-0.33,1.41,79.2,2.3,58.8
Y15F,0.1,1.6,2.69,1.1,-0.07,2.27,0.05,1.03,76.7,-0.2,56.6
G23Q,0,1.89,2.62,1.2,0.31,1.89,0.29,0.79,74.7,-2.2,59.5
G23Q S24D,-0.07,1.67,2.75,1.27,0.1,2.1,0.12,0.96,75.9,-1,59.5
S24D,-0.1,1.65,2.79,1.29,-0.19,2.39,-0.22,1.29,77.8,0.9,61.7
E46A,-0.1,,2.77,1.29,0.12,2.08,0.22,0.86,75.4,-1.5,57.6
E46A L66E,0.84,1.84,2.2,0.36,1.39,0.81,,,68,-8.9,51.9
Q53E,-0.02,1.82,2.68,1.22,0,2.2,0.1,0.98,76.1,-0.8,58.8
V64T,0.31,1.79,2.5,0.88,0.19,2.01,0.26,0.81,75.1,-1.8,58.3
L66E,0.84,1.74,2.21,0.36,1.27,0.93,,,68.9,-8,50.2
R3A,,,,,1.05,1.15,,,64.9,-12,51.4
R3E E21A,,,,,1.1,1.1,,,60,-16.9,49.2
R3K,,,,,0.14,2.06,0.19,0.88,76.1,-0.8,53.5
R3L,,,,,0.22,1.98,0.93,0.14,70.9,-6,55.7
E21A,,,,,0.29,1.91,0.29,0.79,75,-1.9,57.8
T31S,,,,,-0.19,2.39,-0.17,1.24,77.8,0.9,59.8
E46A L66A,,,,,0.22,1.98,0.29,0.79,75,-1.9,56.9
L66A,,,,,0.07,2.13,,,,,
R3E E46A L66E,,,,,,,,,50.3,-26.6,40.4
R3E L66E,,,,,,,,,44.6,-32.3,36.8
